The assay has as its target carcinoembryonic antigen (CEA) (Homo sapiens (Human), UniProt P06731). Briefly: cell-based or functional assay.

B1: MFE23 CD28(IEV) truncated CoStAR (CAR)
chain: QVKLQQSGAELVRSGTSVKLSCTASGFNIKDSYMHWLRQGPEQGLEWIGWIDPENGDTEYAPKFQGKATFTTDTSSNTAYLQLSSLTSEDTAVYYCNEGTPTGPYYFDYWGQGTTVTVSSGGGGSGGGGSGGGGSENVLTQSPAIMSASPGEKVTITCSASSSVSYMHWFQQKPGTSPKLWIYSTSNLASGVPARFSGSGSGTSYSLTISRMEAEDAATYYCQQRSSYPLTFGAGTKLELKRIEVMYPPPYLDNEKSNGTIIHVKGKHLCPSPLFPGPSKPFWVLVVVGGVLACYSLLVTVAFIIFWVRSKRSRLLHSDYMNMTPRRPGPTRKHYQPYAPPRDFAAYRS
Consider B1, for which the “IL-2 secretion (ELISA)” value amounted to 4.6 ng/mL.

The values are drawn from patent US20230227576A1 (published 2023).
